{
  "source": "IntAct's records for PubMed 23142976",
  "parents": {"B1": {"name": "Autophagy-related protein 3 (Saccharomyces cerevisiae), P40344 (parent)", "chain": "MIRSTLSSWREYLTPITHKSTFLTTGQITPEEFVQAGDYLCHMFPTWKWNEESSDISYRDFLPKNKQFLIIRKVPCDKRAEQCVEVEGPDVIMKGFAEDGDEDDVLEYIGSETEHVQSTPAGGTKDSSIDDIDELIQDMEIKEEDENDDTEEFNAKGGLAKDMAQERYYDLYIAYSTSYRVPKMYIVGFNSNGSPLSPEQMFEDISADYRTKTATIEKLPFYKNSVLSVSIHPCKHANVMKILLDKVRVVRQRRRKELQEEQELDGVGDWEDLQDDIDDSLRVDQYLIVFLKFITSVTPSIQHDYTMEGW", "partner": "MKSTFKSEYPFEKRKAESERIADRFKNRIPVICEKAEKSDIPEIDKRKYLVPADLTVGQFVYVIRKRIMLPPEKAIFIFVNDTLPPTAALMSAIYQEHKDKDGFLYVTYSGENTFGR"}, "B2": {"name": "Ubiquitin-like modifier-activating enzyme ATG7 (Saccharomyces cerevisiae), P38862 (parent)", "chain": "MSSERVLSYAPAFKSFLDTSFFQELSRLKLDVLKLDSTCQPLTVNLDLHNIPKSADQVPLFLTNRSFEKHNNKRTNEVPLQGSIFNFNVLDEFKNLDKQLFLHQRALECWEDGIKDINKCVSFVIISFADLKKYRFYYWLGVPCFQRPSSTVLHVRPEPSLKGLFSKCQKWFDVNYSKWVCILDADDEIVNYDKCIIRKTKVLAIRDTSTMENVPSALTKNFLSVLQYDVPDLIDFKLLIIRQNEGSFALNATFASIDPQSSSSNPDMKVSGWERNVQGKLAPRVVDLSSLLDPLKIADQSVDLNLKLMKWRILPDLNLDIIKNTKVLLLGAGTLGCYVSRALIAWGVRKITFVDNGTVSYSNPVRQALYNFEDCGKPKAELAAASLKRIFPLMDATGVKLSIPMIGHKLVNEEAQHKDFDRLRALIKEHDIIFLLVDSRESRWLPSLLSNIENKTVINAALGFDSYLVMRHGNRDEQSSKQLGCYFCHDVVAPTDSLTDRTLDQMCTVTRPGVAMMASSLAVELMTSLLQTKYSGSETTVLGDIPHQIRGFLHNFSILKLETPAYEHCPACSPKVIEAFTDLGWEFVKKALEHPLYLEEISGLSVIKQEVERLGNDVFEWEDDESDEIA", "partner": "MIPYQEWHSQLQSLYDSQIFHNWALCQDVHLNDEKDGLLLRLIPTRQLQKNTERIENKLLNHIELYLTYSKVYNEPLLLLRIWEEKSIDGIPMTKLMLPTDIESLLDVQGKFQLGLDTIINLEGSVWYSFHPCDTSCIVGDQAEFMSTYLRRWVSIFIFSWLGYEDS"}, "B3": {"name": "Ubiquitin-like modifier-activating enzyme ATG7 (Saccharomyces cerevisiae), P38862 (parent)", "chain": "B2 chain", "partner": "B1 chain"}},
  "data": [
    {"variants_of": "B1", "settings": "with atg8_yeast ATG8, P38182", "values": [
      {"variant": "R72A;K73A;Y168A", "effect of a mutation on the interaction": "disrupting interaction strength"}
    ]},
    {"variants_of": "B2", "settings": "with atg10_yeast ATG10, Q07879", "values": [
      {"variant": "Y137A", "effect of a mutation on the interaction": "decreasing interaction strength"},
      {"variant": "C507A", "effect of a mutation on the interaction": "disrupting interaction strength"},
      {"variant": "V285D", "effect of a mutation on the interaction": "disrupting interaction strength"}
    ]},
    {"variants_of": "B3", "settings": "with atg3_yeast ATG3, P40344", "values": [
      {"variant": "V285A", "effect of a mutation on the interaction": "decreasing interaction strength"},
      {"variant": "K14A;F16A;D18A", "effect of a mutation on the interaction": "decreasing interaction strength"},
      {"variant": "C507A", "effect of a mutation on the interaction": "disrupting interaction strength"},
      {"variant": "F16A;F61A", "effect of a mutation on the interaction": "decreasing interaction strength"},
      {"variant": "P283D", "effect of a mutation on the interaction": "decreasing interaction strength"}
    ]}
  ]
}
